This assay deals with Bio-His-FIKK13 (Plasmodium falciparum 3D7). Kind of assay: SPR; single-cycle kinetics, Biacore S200, Biotin CAPture kit; Bio-His-FIKK13 immobilised (about 1,400 RU), peptides as analytes; 50 mM Tris pH 7.5, 250 mM NaCl, 2 mM DTT, 10 mM MgCl2, 1.5 µM ADP, 0.02% Tween, 0.1% DMSO; 25 °C; 100 s contact time. A general note: SPR reads the build-up and loss of mass on a sensor chip optically.

Where no end group is shown, it is not given here. [ ]: non-standard residue; d: D form.

In general, Kd refers to the equilibrium constant for the complex coming apart. A lower Kd goes with a tighter complex. As usually defined, the koff is a measure of how fast the partners let go of each other. High values mean a short-lived complex, low ones a long-lived complex. The kon is a measure of how fast the partners come together. The low end stands for slower complex formation, the high end for faster complex formation.

B1: FIKK13_2_linear (peptide)
peptide: [dY]SFPVYRIWYRDCG-NH2
modifications: N-terminus assumed
SMILES: CC[C@H](C)[C@H](NC(=O)[C@H](CCCNC(=N)N)NC(=O)[C@H](Cc1ccc(O)cc1)NC(=O)[C@@H](NC(=O)[C@@H]1CCCN1C(=O)[C@H](Cc1ccccc1)NC(=O)[C@H](CO)NC(=O)[C@H](N)Cc1ccc(O)cc1)C(C)C)C(=O)N[C@@H](Cc1c[nH]c2ccccc12)C(=O)N[C@@H](Cc1ccc(O)cc1)C(=O)N[C@@H](CCCNC(=N)N)C(=O)N[C@@H](CC(=O)O)C(=O)N[C@@H](CS)C(=O)NCC(N)=O
Molecule B1 returned a dissociation constant Kd above 10 µM.

B2: FIKK13_6 (peptide)
peptide: YIVSVVCWSD
modifications: D-tyrosine at position 1; cyclised via a thioether bond between the N-terminus and the cysteine side chain; C-terminal amide
Regarding B2, the equilibrium dissociation constant (Kd) was above 10 µM.

B3: FIKK13_1 (peptide)
peptide: YRLVFGCG
modifications: D-tyrosine at position 1; cyclised via a thioether bond between the N-terminus and the cysteine side chain; C-terminal amide
B3 came in with a Kd above 10 µM.

B4: FIKK13_5 (peptide)
peptide: YRIFRIWWERCG
modifications: D-tyrosine at position 1; cyclised via a thioether bond between the N-terminus and the cysteine side chain; C-terminal amide
In the case of B4, the koff stood at 0.07 s⁻¹ and the kon came to 1.9e+06 M⁻¹ s⁻¹.

B5: FIKK13_2 (peptide)
peptide: YSFPVYRIWYRDCG
modifications: D-tyrosine at position 1; cyclised via a thioether bond between the N-terminus and the cysteine side chain; C-terminal amide
B5 gave a koff of 0.2 s⁻¹ and a kon of 1.4e+06 M⁻¹ s⁻¹.

B6: FIKK13_3 (peptide)
peptide: YPFITSPRYCFML
modifications: D-tyrosine at position 1; cyclised via a thioether bond between the N-terminus and the cysteine side chain; C-terminal amide
Molecule B6 displayed a koff of 0.029 s⁻¹ and a kon of 3.5e+06 M⁻¹ s⁻¹.

B7: FIKK13_4_linear (peptide)
peptide: [dY]PLRFLSVKYHCG-NH2
modifications: N-terminus assumed
SMILES: CC(C)C[C@H](NC(=O)[C@H](Cc1ccccc1)NC(=O)[C@H](CCCNC(=N)N)NC(=O)[C@H](CC(C)C)NC(=O)[C@@H]1CCCN1C(=O)[C@H](N)Cc1ccc(O)cc1)C(=O)N[C@@H](CO)C(=O)N[C@H](C(=O)N[C@@H](CCCCN)C(=O)N[C@@H](Cc1ccc(O)cc1)C(=O)N[C@@H](Cc1c[nH]cn1)C(=O)N[C@@H](CS)C(=O)NCC(N)=O)C(C)C
The molecule B7 gave a Kd above 10 µM.

B8: FIKK13_4_Y10A (peptide)
peptide: YPLRFLSVKAHCG
modifications: D-tyrosine at position 1; cyclised via a thioether bond between the N-terminus and the cysteine side chain; C-terminal amide
For the molecule B8, the Kd is above 10 µM.

Values taken from paper PMC12137140, “The fast-evolving FIKK kinase family of Plasmodium falciparum can be inhibited by a single compound” (Nature Microbiology, 2025).
